According to PMC11910620 (Nature Communications, 2025):
Changes are numbered by the printed parent chain. Numbers in names are those of the source. Where “and” joins values, the source holds several entries; their conditions need not be identical. Identical values can stand only once.

B1: Msn5 (S. cerevisiae exportin), wild type (natural protein)
chain: MDSTGASQIVSALDVIYSPKSNNSQRQEAQKFLDEVKLCSESPFWGYEIALQNPTNSILKYFGLGLLDHAVKKNWNDYDEGKRVALRKWVMELNFGVQDYDTRYIKEKLATLWVEVAKRTWGEALKQTNPTEEQLLTSWVDMDNNLFELWNINQSSRELALIIFRILFEDVFLLDDLIVLKRMTVIQPLCVMIVCPIEVFAIKYKFSDKWTKFKANEEGWFSVWIPELNNALQQNNSEYIIRLLETLKTCLNWPLTEVIVRNDVLSSLLTCLSSNIPRAQSMALDSIHILLTRPYSNESHYQMTIDRVFDNMDLLDSVYESLLFDPTDDIDETKYPIIKKFVDMISCLYVCVPKIKETNGQIQKYFKLVLKTTYNPSLIVSGLTLDLWCTCLRNDEYLPKLEKYVIPDLLQFAADALVYYEQIDGHISKKFAEIDFQSKSEFQTFCSTYRKRIRDIIRLISCVELDLTYDWLNNRLNNYFSSPFGQQVLSSTFLDHKLEPYLGALSQYMIVECFINGCIRWKIWYPTGDDYDEKLDSILQKLEILSNQLIALNLREPLLLKKQIQNFALFLTMLKDNVLFTLLEKIITSATMDYPEINLEERGAESDAVRDLRYACGIELNRMALLMPESLKKIYPDLESVIARIMPNLSYHEKISFKSFLLIIVLKSSLDMKEERFAAIVDPELLAWSDKTTVVGLSDLHWFMERLGIVQIAEYFQRRDIDENSDLLSIPIDDEGKELKSELTKRWQSLFPVRATRMFIHYSMQSIKTDEEFKMLQDLWRPRIVPILPYITRLLYQLQSYHDPDNWKGLPTVVQSFVKYSTIERFWEAGASNKSKDEFIDEHMKAMQTLRDFADSVGHIIRYTREYTLLVLSAISSLGSVFYLLDESPDLLLNSIAIFKPGSNEISPGVSTHGWKHIMNIAIRPILKGCPKDCLGKFMPAFLPKLFEILDLLLCQKWSSHMNDMDMNPVPTDDDQMTEEILEENLLRQLTTVVVRIVIDCVGQGNANPNSAKSRLNNHQMEMRKIIFNDLNTLAPFLKLLNHLISFKDTKCSFNSILVMKCCLTSVLNQNNTVDEYFTFEVMKNLLLNVLCNSAFKDSFHEALYAFTVIFLTLCKEYPSARAFLFEISNGYNIDELYRNLRSVDEYKTQRALMIDFIDWVKSTSGKEDGNVDHAGDERKRQEKREAILKKANERLIKKNKENGDMLDDPNIEDGAVGNLFDDN
B2: mNeonGreen-Pho4_(3-200), unphosphorylated (domain or fragment)
chain: RTTSEGIHGFVDDLEPKSSILDKVGDFITVNTKRHDGREDFNEQNDELNSQENHNSSENGNENENEQDSLALDDLDRAFELVEGMDMDWMMPSHAHHSPATTATIKPRLLYSPLIHTQSAVPVTISPNLVATATSTTSANKVTKNKSNSSPYLNKRRGKPGPDSATSLFELPDSVIPTPKPKPKPKQYPKVILPSNST
B3: mNeonGreen-pPho4_(3-200) 102–107GKK (domain or fragment)
chain: B2 chain with A100G, T101K, T102K, A103G, T104K, I105K
modifications: phosphorylated in vitro by Pho80-Pho85: pS100, pS114, pS128, pS152
B4: mNeonGreen-pPho4_(3-200) R2mut (domain or fragment)
chain: B2 chain with Y111G, L114G, I115G, H116S, T117G
modifications: phosphorylated in vitro by Pho80-Pho85: pS100, pS114, pS128, pS152
B5: mNeonGreen-pPho4_(3-200) R3mut (domain or fragment)
chain: B2 chain with A120G, V121G, P122S, V123G, T124G, I125S
modifications: phosphorylated in vitro by Pho80-Pho85: pS100, pS114, pS128, pS152
B6: mNeonGreen-pPho4_(3-200) R4mut (L131A/T134A) (domain or fragment)
chain: B2 chain with L129A, T132A
modifications: phosphorylated in vitro by Pho80-Pho85: pS100, pS114, pS128, pS152
B7: mNeonGreen-pPho4_(3-200) S100/152AA (domain or fragment)
chain: B2 chain with S98A, S150A
modifications: phosphorylated in vitro by Pho80-Pho85: pS114, pS128
B8: mNeonGreen-pPho4_(3-200) S114/128AA (domain or fragment)
chain: B2 chain with S112A, S126A
modifications: phosphorylated in vitro by Pho80-Pho85: pS100, pS152
B9: mNeonGreen-pPho4_(3-200) S114A (domain or fragment)
chain: B2 chain with S112A
modifications: phosphorylated in vitro by Pho80-Pho85: pS100, pS128, pS152
B10: mNeonGreen-pPho4_(3-200) S128A (domain or fragment)
chain: B2 chain with S126A
modifications: phosphorylated in vitro by Pho80-Pho85: pS100, pS114, pS152
B11: mNeonGreen-pPho4_(3-200), wild type, phosphorylated (domain or fragment)
chain: B2 chain
modifications: phosphorylated in vitro by Pho80-Pho85: pS100, pS114, pS128, pS152
B12: pPho4_(1-200), phosphorylated, GST removed (domain or fragment)
chain: MGRTTSEGIHGFVDDLEPKSSILDKVGDFITVNTKRHDGREDFNEQNDELNSQENHNSSENGNENENEQDSLALDDLDRAFELVEGMDMDWMMPSHAHHSPATTATIKPRLLYSPLIHTQSAVPVTISPNLVATATSTTSANKVTKNKSNSSPYLNKRRGKPGPDSATSLFELPDSVIPTPKPKPKPKQYPKVILPSNST
modifications: phosphorylated in vitro by Pho80-Pho85: pS100, pS114, pS128, pS152 (pS114 and pS128 seen in the structure)

Key:
Msn5 (Kap142) = Msn5 (Kap142) (UniProt P52918); assay: fluorescence polarization titration, mNeonG-pPho4; conditions: reference: wild-type pPho4; sites S114
[1] = biological target: Pho4_(1-200) S114/128DD and Pho4_(1-200) S114/128EE; assay: fluorescence polarisation
[2] = biological target: T1, Msn5 (S. cerevisiae exportin), wild type (S. cerevisiae, UniProt P52918 1-1224); assay: fluorescence polarisation
T1 sequence: B1 chain

Msn5 RRAA (R393A, R458A) = biological target: T2, Msn5 RRAA (R393A, R458A) (S. cerevisiae, UniProt P52918 1-1224, RRAA (R393) | RRAA (R458)); assay: fluorescence polarisation
T2 sequence: B1 chain with R393A, R458A

[3] = biological target: T1, Msn5 (S. cerevisiae exportin), wild type; assay: cryo-EM structure

Molecule	Kd [2]	other results
Pho4 3-200 (from UniProt P07270) pPho4 S114A		KD (Msn5 (Kap142)): weaker; reference 44[26,71]
B1		Kd [1]: 2 to 3 µM
B2	2.4 µM	
B3	0.11 µM	
B4	0.8 µM	
B5	0.28 µM	
B6	0.15 µM	
B7	0.046 µM	
B8	1 µM	
B9	0.25 µM	
B10	0.12 µM	
B11	0.02 µM and 0.044 µM and 0.025 µM	Kd (Msn5 RRAA (R393A, R458A)): 2.2 µM
B12		binding result [3]: binds
